Results from the DeepSol protein solubility set.

Test: soluble on expression in E. coli; label from the status in PepcDB or PDB records

| Sequence | soluble on expression in E. coli |
| --- | --- |
| MGSDKIHHHHHHMEKAVENFEDLSKEYINGYIERARKAQREFECYTQEQVDKIVKIVGKVVYYNAEYLAKLAVEETGMGVYEDKVAKNKSKAKVIYNNLKDKKSVGIIDIDRETGITKVAKPVGVVAAITPCTNPIVTPMSNAMFALKGRNAIIITPHHKAIGCSTKTVEMINEELEKIGAPENLIQILDQQSRENTRNLISSADVVIATGGMGMVKAAYSSGKPALGVGAGNVQCIIDRDVDIKEAVPKIIAGRIFDNGIICSGEQSVIVAEEMFDKIMDEFKNNKGFIVRDKVQKEAFRNAMFVNKSMNKDAVGQSVHTIAKIAGVEIPEDTKIIVIEADGPGEEDIIAKEKMCPVISAYKYKSFEEGVAIAKANLNVEGKGHSVSIHSNTVKNIEYAGENIEVSRFVINQCCATSAGGSFFNGLAPTNTLGCGSWGNNSISENLDYKHLINISRIAYYMPENEVPTDEELWG | not soluble |
| MGSDKIHHHHHHMEKLRVIEMIKNNPNIIATIDNPTDEMKLLAIKENGLVLEYINNPTREMQELAIDNNIRAIKFIDNPTEDMMIKAVNEGWSILDYIKNPTDKVIEMAINQAGWAIKYAKNPSEELQLLAVRKNYDSIKFIKQPYESVQEEAVRISYDALRYIDSPSYNAELVAIKNNEAAISFITDLDKNKMLEFLKVNILVIKYILKKVSKDELESVLKEVLSKEDVEEKYIRDFLNCSVIDRNSESIPIDKIMFIYKYGSKTAKKIAVDEKLKIM | not soluble |
| MGSDKIHHHHHHMELVVDAHELKEWVYLLDKLVGTTEPTARFLSFFYRDGLWVSASDNCAKVEIFLGEIPRFEGSRIVSLDLVKYFLSDVKVSDVRITVLQERLVLKAGNEVLDVRCKTGEIPPGDGEEEFLCTLTKREFEGALNFASSNLDEGEFLILLFEEKDVLMFGASAGIMTLAQISTIPKKPFSTKIPYVTVRHIFKAFQRLDVQTLDFYEKSGKLVVKYPHFVMEVCGDEVSEEEIKKLKSLLEEKTAERIEARRQVLAKLVRKAAVLSRGDYATISRRGENLKVQVKRKNLSYTAELFVESGRDFVVVFPSKKLRSALARMDTERIFLEITERFLKISNFSGTRVIYLELEEFF | not soluble |
| MGSDKIHHHHHHMEMEFNENNIDLETIIRDEVNKYLSRDIGDLPATQQAPLELREKYEKMEVPNKGRDIYEVLKDLNNEVLNYLYRPNHPRSFSFIPGPASRLSWLGDILTTANNIHASNFANATLPINIERNLINYLVGKIGYEIKPAGGVFVSGGSMANLTAIVAARDAQVEMEDIKKATVYLTSQTHHSVGKALHVAGFLKNNIRRIEYNDDFTMNTDSLKAAIDKDIEEGYKPAMVIATAGTTNTGSVDDFTTLGDICDHYNLWLHVDGAYGLSHILSDKAQHLFKGIERSDSASWDAHKLLFQTYSCAMVIVKEKNHLLQSFGEDAEYLDDIASDDDVIDPEMLGIELTRPARALKLWITLQVIGEDEIIERIKYGEGLAEYAEEYVSSLDNWRIISHANLSIVNFRYENSDLTEAQNNQLNSMAAQKIADSGYAIAYTTVLNNQRVIRLCTTNPLTTHDDIRETINRLDQYIGDYDMKDA | not soluble |
| MGSDKIHHHHHHMENDILKYQKAYNTIVKLLKSNEKVLATMVFGSIVSGDLWEESDIDLFVIIDEEMANIKNIYMEQNDVPIHIKLMGKNKFVLLNENDIKGGFFHRIFASSKLVFSKDKDITEKYDSGRYYPDIDREKWNMVYISDLLKSLGLCKKYLNNKRIYTAYYFSVKCVEEFSKLYINHSGYMVNKDDVNMLTNINGDFKNYIDNLFFSKDNVEEAIKEVVDKIEEFINKNIKSITAILIDYMRDKDKSLSAEDINTDPVFNDFSINFEEILSKLWEFNIIKKGTRKYSIKDGKALCMENVYYL | not soluble |
| MGSDKIHHHHHHMENFVFHNPTKIVFGRGTIPKIGEEIKNAGIRKVLFLYGGGSIKKNGVYDQVVDSLKKHGIEWVEVSGVKPNPVLSKVHEAVEVAKKEKVEAVLGVGGGSVVDSAKAVAAGALYEGDIWDAFIGKYQIEKALPIFDVLTISATGTEMNGNAVITNEKTKEKYGVSSKALYPKVSIIDPSVQFTLPKEQTVYGAVDAISHILEYYFDGSSPEISNEIAEGTIRTIMKMTERLIEKPDDYEARANLAWSATIALNGTMAVGRRGGEWACHRIEHSLSALYDIAHGAGLAIVFPAWMKYVYRKNPAQFERFAKKIFGFEGEGEELILKGIEAFKNWLKKVGAPVSLKDAGIPEEDIDKIVDNVMLLVEKNLKPKGASLGRIMVLEREDVREILKLAAK | soluble |
| MGSDKIHHHHHHMENIPFLRASTVPVIEYLDELKEIDASHIYTNYGPINQRFEQTIMSGFFQNRGAVTTVANATLGLMAAIQLKKRKKGKYALMPSFTFPATPLAAIWCGLEPYFIDISIDDWYMDKTVLWDKIEELKEEVAIVVPYATFGSWMNLEEYEELEKKGVPVVVDAAPGFGLMNGGMHYGQDFSGMIIYSFHATKPFGIGEGGLIYSKNEEDIQRIKRMGNFGFDTNRECTMMGFNCKMSEYAAAIGIATMKKWDDKLKERTRISEWYKQLLQSNGLMKKGWQLQKTEAVIQQFMPILCPEEVRNKQVIEDLKKQKIEARLYFSPSCHQQVLFRNYKSTDLTRTNKIAKRIVSLPLWEGMTKEIVEQIVICLGQKVVSADE | not soluble |
| MGSDKIHHHHHHMENRIVKFKSKESAGLNLHAIPGHFATSHSHINYYVDVTSIKTRVSEAKEAAKALYTKVPHHSYIDTIVCMDGTEMIGAFLSQEIERNGLMSVNKHETIYVVSPEINNGQMLFRDNNKGAIDGKHVVLLLATTTTGETIRRAMECINYYGGMVTCIASIFSTIDEVNGVKIDKLFDDDDVVNYQTYPVTECPFCKKGLPIEAMVNGFGYSKL | not soluble |
| MGSDKIHHHHHHMENSQQHTDFRQRLELLIGSEKPYAWAARNGLNKGSFTNMWYKGGVPRIGTAQKIAANSGCRVEWLLYGEGPMQDECAQAHDAPMPAGLPALSPLADADEHEVPAGVQEEFCFIPRYNLKASAGFGTSAAGEQPMFYMAFRRYWVKNYLNASPRNLVVISVKGDSMSGVLEDRDTILVNTAERHPGEGLFVIRIGDDIFVKQLQRLPGGAVQVKSANPLYETFTVDLSRASGEFEVIGRVVWFGRQIA | not soluble |
| MGSDKIHHHHHHMENTIYLSSAYLAPVEYYTKLFACEKAYVEQYDNYVKQTYRNRCVIAAADGPLALTIPTEKSGTPKCLMKDVRISDHGNWRHIHWNALVAAYRNSPFFEYYADDFHVFYEKKYAFLWDYNQEICSLVCDLIDIHPHMEGTTEYCMEFVPGEVDFRETIHPKRDWREADADFCPKPYYQVFDAKYGFLPNLSIADLLFNMGPESLIVLRDSVKGINHKE | not soluble |
| MGSDKIHHHHHHMEPEILFRKIDDLGEGPTYDERRKRVYWVDIRGKKFHYLSLENSEMKTFQSIGMISSIVPTDRDLMAATVDHGLYLIDDAGKHTLLTEVEKDQKSTRFNDGKADPFGNYVAGTMDLEEKRPIGSLYVLTGKTIRRILENLTISNGIAWNTKKKVFYHIDTPKRRVDAYSYDGKMNIERLGTAVDFRNEVGNPDGMTIDADGNLWVAHWGGNRITIHDPERQKKIDEIIFPAQNITSCVFAGNGLRDLYVSSASNGNPDDMGGSLFVVHTDYAGSKTFTFSVP | not soluble |
| MGSDKIHHHHHHMEPIVRLENVTKNYRGVPAVKNVSFDLRKGEIHALLGENGAGKSTLTKIIAGVVDATSGKMFHKGREIAYASPHAALEAGIAMVFQETSLVPSMTVAQNLYLGTEKFLNRLRGTYIAAQQFLQSLNFPVDPNAMVATLGAAKRQMVEIARAVHHNAEIIIFDEPTATLTPEEKRHFFALIRRLKASGVSIVFISHALEEALAIADRITILRDGELVITDDTSAFDRDKIVAAMVGRTLSGQIYRQRDEARLRKAGKKVLSVQDISMSNVVRNNSFSIFEGQITGVFGLIGSGRTETFKIVSGIYKRDFLRGGAIELDDRPVRYLVPSEAVADGIVYVTEDRKSEGIFETMGIAENLFGGLLAAGREKAWVINQQEMRQLSAQWTKTLNIKAINDNARVVELSGGNQQKVVIGKGLVQQPRIVIFDEPTRGVDVGAIAEIHQIINRLADEGLAVVVISSYLPEIMNLSDRILVCRQGRIVEEYSPAEATEEKIMYAAVH | not soluble |
| MGSDKIHHHHHHMEQDDKKLFVLDTNVLLHEPLAIYSFKEHDVVVPMTVLEELDQIKDRKRDVSRDARVAIRALEDILGGQTTPEEIVSGVPLPKREGHGDAVGSLSIFPDHQLEFTQASLPGDNNDNRIINTALHLQNQFAPRHVVLVTKDINMRLKAKGAGINLVEDYRTDQLIDDIRFLTKGFHQFEGDFWARKEHVNTETQGRHTVHRVPVKEVGEENFYTNQYLIDEDSNFCGRVLSNNDEELEILDLGRDRLLNLDAWGIKPKNVYQGMAMQALLDPDIDLVILTGPAGCGKTLLAMAAALEMVVERGLYDKVIVTRNTPEIAESIGFLPGTEEEKMAPWLAAITDTLEVLHKHDVNPSGSMNYIMDKANIQFKSINFMRGRSIQNSVVLLDECQNLTASQIKTMITRMGEGTKLICSGNLAQIDSNYLTAVTSGLTYIVERFKNFDGSANIYLNGVVRSRLAEFAEENL | not soluble |
| MGSDKIHHHHHHMEQSMRKKNNNQINIVLNHRKKISLPAAENKTVISSETTTKHEMLQRIEEEMGKLVGMDDIKKIIKEIYAWIYVNKKRQEIGLKSEKQVLHMLFKGNPGTGKTTVARMIGKLLFEMNILSKGHLVEAERADLVGEYIGHTAQKTRDLIKKAMGGILFIDEAYSLARGGEKDFGKEAIDTLVKHMEDKQHGFVLILAGYSREMNHFLSLNPGLQSRFPFIIEFADYSVNQLLEIGKRMYEEREYQLSKEAEWKFRDHLHAVKYSSQITSFSNGRYVRNIVEKSIRTQAMRLLQEDAYDKYDLIGISSSDLMLEEETHST | not soluble |
| MGSDKIHHHHHHMESIVSWPKPRGLARHSGRKAMSSLSSLARIALSLSLPSGLLDRGPSLRGTKFLAKAALKARFGGASQPFQMVNVGACDGALFDDVTPWLHRIAGARAMLVEPIPYNQKRLRANYPDKERFIIEPVAVTKTKGTITVHTFDAAALEAGTLPIEFIGCSSVTDTNLMSGKNAWGEADANFNKFAPHLRDIEVPSETLQTLLDRNGISHIDAFLVDCEGADWMVFEQLDLKRYRPGLIKVEVGALPATEIGQVVVKLKTAGYQVGFQAEDVWAFA | not soluble |
| MGSDKIHHHHHHMESYYAVLDAMAAAPGDGVFAIIIDVEGSAYQKEGTWMWIEASGKTTGLLSGGCFEEAVAAHALDVLSNRQATSISFDLRAEDDWSWGQGAGCNGLVRIWLEPVTSNTKPDWLALKRCLDRGEHVFMARSITDPREQPFFQSETGERFGGYSSPPRPEWLKELHGTPFFRGRNGVYETEEDTFFIQHFWPKPRLTIFGAGPDAPPLVSAAKAAGFSVTVSDWRPAFCQPSHVPDADAWVVGFPHETIPKLHLTERDFVVIMTHQFERDRELMRWLADIPLAYLGVLGPRRRTDRLFPSGTAPPFVRSPIGLPIGARSPHEIAISITAELINVLRGGPMETAR | not soluble |
| MGSDKIHHHHHHMETQNKPTVTDIDRPILVPPGGHKKVLLHSCCAPCSGEVMEAMLASGIDYTIYFYNPNIHPHKEYMLRKEENVRFAEKFGIPFIDKDDDYENDRKEWFAKAKGMEFEPERGIRCTMCFDMRFEKAAQYAHEHGFPVFTSSLGISRWKNMNQINDCGRRAAAPYDDVVYWDFNWRKGGGSARMIEISKRENFYQQEYCGCAYSLRDSNAHRKSQGRIPIKLGVLYYGDESTQYEPAPIRVDK | not soluble |
| MGSDKIHHHHHHMEVEIVERNAFTAVGKKRTFSVENDAQKEKISQFWQEVNANGDAERINELAEFATIDGILGVCQMNGDQMDYYIAIESELTPPADMEKLTIPASKWAIFKSVGPLPNAIQKVWEYIYGEWFQTCNYTHGNAPELEVYTEGDTTAVDYYSEVWIPVVEKD | not soluble |
